Laboratory results published in PMC12069552, “Root stem cell homeostasis in Arabidopsis involves cell-type specific transcription factor complexes” (EMBO Reports, 2025).

What was measured:
[1] = biological target: BES1D-mVenus (Arabidopsis thaliana) (UniProt Q9LN63); test: FRET or BRET; FRET-FLIM in nuclei of transiently expressing N. benthamiana epidermal leaf cells; mVenus fusion as donor, mCherry fusion as acceptor; 'binding' [%] is the amplitude of the FRET component (number of donor molecules undergoing FRET); binding cutoff 10%; a binding not significantly different from the negative control (mCherry-NLS) is regarded as no interaction
Sequence of BES1D-mVenus (Arabidopsis thaliana) (Q9LN63 whole entry, the tested form may be a part): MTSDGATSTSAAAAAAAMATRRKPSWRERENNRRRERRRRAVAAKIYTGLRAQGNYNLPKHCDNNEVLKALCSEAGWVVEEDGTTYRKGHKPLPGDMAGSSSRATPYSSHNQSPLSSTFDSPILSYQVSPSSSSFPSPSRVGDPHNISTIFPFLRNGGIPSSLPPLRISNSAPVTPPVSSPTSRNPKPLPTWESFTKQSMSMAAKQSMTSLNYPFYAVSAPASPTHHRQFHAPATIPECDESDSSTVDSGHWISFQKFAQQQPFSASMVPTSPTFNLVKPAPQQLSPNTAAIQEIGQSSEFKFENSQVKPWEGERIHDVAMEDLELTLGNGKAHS

[2] = biological target: T1, WOX5-mV(N) BRAVO-mV(C) heterodimer (BiFC donor) (Arabidopsis thaliana, UniProt Q8H1D2 1-182; Q6R053 1-323); test: split reporter (BiFC, NanoBiT) + FRET or BRET; BiFC-FRET-FLIM in nuclei of N. benthamiana epidermal leaf cells; mVenus donor split into mV(N) and mV(C) on two proteins, third protein with mCherry as acceptor; 'binding' [%]; binding cutoff 10%; conditions: partners not purified
T1 construct: WUSCHEL-RELATED HOMEOBOX 5 (WOX5) of Arabidopsis thaliana; the CDS, described in Burkart et al, 2022; BRAVO, R2R3-MYB transcription factor of Arabidopsis thaliana; the CDS amplified from cDNA; also called WOX5-mV(N) and BRAVO-mV(C); source: N. benthamiana leaf cells, transiently co-expressed, in cells
T1 sequence (looked up) 1: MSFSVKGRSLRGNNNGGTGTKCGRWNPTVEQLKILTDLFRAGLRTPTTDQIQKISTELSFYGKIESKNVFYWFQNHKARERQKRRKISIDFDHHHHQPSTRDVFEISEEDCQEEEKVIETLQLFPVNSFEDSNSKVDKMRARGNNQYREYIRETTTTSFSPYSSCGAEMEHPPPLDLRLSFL
T1 sequence (looked up) 2: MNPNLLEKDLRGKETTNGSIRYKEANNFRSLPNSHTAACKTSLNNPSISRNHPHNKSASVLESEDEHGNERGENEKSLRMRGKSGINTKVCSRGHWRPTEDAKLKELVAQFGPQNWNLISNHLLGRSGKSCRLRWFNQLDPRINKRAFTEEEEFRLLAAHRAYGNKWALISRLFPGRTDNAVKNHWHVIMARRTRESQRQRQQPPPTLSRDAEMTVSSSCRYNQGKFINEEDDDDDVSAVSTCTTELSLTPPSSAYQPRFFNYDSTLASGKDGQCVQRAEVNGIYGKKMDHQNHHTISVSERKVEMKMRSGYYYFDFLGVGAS

TPL-mVenus = biological target: T2, TPL-mVenus (Arabidopsis thaliana, UniProt Q94AI7 1-1131); test: FRET or BRET; FRET-FLIM in nuclei of transiently expressing N. benthamiana epidermal leaf cells; mVenus fusion as donor, mCherry fusion as acceptor; 'binding' [%] is the amplitude of the FRET component (number of donor molecules undergoing FRET); binding cutoff 10%; a binding not significantly different from the negative control (mCherry-NLS) is regarded as no interaction; conditions: partners not purified
T2 construct: TOPLESS (TPL) of Arabidopsis thaliana; the CDS amplified from cDNA; FRET donor; source: N. benthamiana abaxial epidermal leaf cells, transiently expressed (β-estradiol inducible), in cells
T2 sequence (looked up): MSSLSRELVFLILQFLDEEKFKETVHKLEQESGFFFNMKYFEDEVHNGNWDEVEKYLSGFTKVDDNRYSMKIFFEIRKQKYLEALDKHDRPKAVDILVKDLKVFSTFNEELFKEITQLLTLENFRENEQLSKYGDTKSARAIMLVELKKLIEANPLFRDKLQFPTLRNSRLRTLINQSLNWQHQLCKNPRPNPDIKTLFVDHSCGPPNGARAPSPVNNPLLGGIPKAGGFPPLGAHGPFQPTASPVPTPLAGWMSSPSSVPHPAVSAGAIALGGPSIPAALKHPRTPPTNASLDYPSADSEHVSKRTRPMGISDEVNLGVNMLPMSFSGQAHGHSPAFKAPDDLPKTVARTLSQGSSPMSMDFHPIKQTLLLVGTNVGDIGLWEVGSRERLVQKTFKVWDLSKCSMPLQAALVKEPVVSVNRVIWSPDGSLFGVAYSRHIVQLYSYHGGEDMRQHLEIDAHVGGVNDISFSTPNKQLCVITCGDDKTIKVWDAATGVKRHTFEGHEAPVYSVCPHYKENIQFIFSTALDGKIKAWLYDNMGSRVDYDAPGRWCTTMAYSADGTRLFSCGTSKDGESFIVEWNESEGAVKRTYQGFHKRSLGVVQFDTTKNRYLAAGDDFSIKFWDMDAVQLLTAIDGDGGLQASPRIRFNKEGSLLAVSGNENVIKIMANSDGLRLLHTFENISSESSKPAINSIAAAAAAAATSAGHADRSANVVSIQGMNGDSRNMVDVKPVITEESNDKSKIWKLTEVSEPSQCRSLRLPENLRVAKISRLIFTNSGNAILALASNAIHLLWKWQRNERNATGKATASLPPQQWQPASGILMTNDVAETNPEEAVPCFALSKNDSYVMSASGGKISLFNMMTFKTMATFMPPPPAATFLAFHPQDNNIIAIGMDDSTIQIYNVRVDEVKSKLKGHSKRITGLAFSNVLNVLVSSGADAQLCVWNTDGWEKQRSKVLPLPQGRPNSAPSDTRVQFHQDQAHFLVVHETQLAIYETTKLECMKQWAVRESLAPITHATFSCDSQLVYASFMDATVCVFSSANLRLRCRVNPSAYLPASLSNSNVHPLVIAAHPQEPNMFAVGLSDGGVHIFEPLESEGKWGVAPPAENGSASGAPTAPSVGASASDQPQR

B1: PLT3-mCherry (PLETHORA 3) (natural protein, Arabidopsis thaliana, UniProt Q52QU2 1-581, looked up)
chain: MMAPMTNWLTFSLSPMEMLRSSDQSQFVSYDASSAASSSPYLLDNFYGWSNQKPQEFFKEEAQLAAAASMADSTILTTFVDPQSHHSQNHIPKLEDFLGDSSSIVRYSDNSQTDTQDSSLTQIYDPRHHHNQTGFYSDHHDFKTMAGFQSAFSTNSGSEVDDSASIGRTHLAGDYLGHVVESSGPELGFHGGSTGALSLGVNVNNNTNHRNDNDNHYRGNNNGERINNNNNNDNEKTDSEKEKAVVAVETSDCSNKKIADTFGQRTSIYRGVTRHRWTGRYEAHLWDNSCRREGQARKGRQGGYDKEDKAARAYDLAALKYWNATATTNFPITNYSKEVEEMKHMTKQEFIASLRRKSSGFSRGASIYRGVTRHHQQGRWQARIGRVAGNKDLYLGTFATEEEAAEAYDIAAIKFRGINAVTNFEMNRYDVEAIMKSALPIGGAAKRLKLSLEAAASSEQKPILGHHQLHHFQQQQQQQQLQLQSSPNHSSINFALCPNSAVQSQQIIPCGIPFEAAALYHHHQQQQQHQQQQQQQNFFQHFPANAASDSTGSNNNSNVQGTMGLMAPNPAEFFLWPNQSY
notes: PLETHORA 3 (PLT3), APETALA2-type transcription factor of Arabidopsis thaliana; CDS and construct described in Burkart et al, 2022; FRET acceptor; construct XVE:PLT3-mCherry of Burkart et al, 2022; also called full-length PLT3; source: N. benthamiana abaxial epidermal leaf cells, transiently expressed (β-estradiol inducible), in cells
binding (FRET-FLIM, share of donor molecules undergoing FRET) [1]: 16.9% | binding (FRET-FLIM, share of donor molecules undergoing FRET) [2]: 31.5 ± 8.5% | binding (FRET-FLIM, share of donor molecules undergoing FRET) (TPL-mVenus): 13.5 ± 4.3%
